From paper doi:10.1101/2023.10.11.561842

What was measured:
[1] = biological target: ErNaR, NDQ rhodopsin (light-driven sodium pump) from Erythrobacter sp. HL-111 (Erythrobacter sp. HL-111); experiment: SEC
[2] = biological target: ErNaR, NDQ rhodopsin (light-driven sodium pump) from Erythrobacter sp. HL-111 (Erythrobacter sp. HL-111); experiment: SEC; remark: listed apart in the source
[3] = biological target: ErNaR, NDQ rhodopsin (light-driven sodium pump) from Erythrobacter sp. HL-111 (Erythrobacter sp. HL-111); experiment: cryo-EM structure
[4] = biological target: ErNaR, NDQ rhodopsin (light-driven sodium pump) from Erythrobacter sp. HL-111 (Erythrobacter sp. HL-111); experiment: cryo-EM structure; remark: listed apart in the source

Measured: stoichiometry N

ErNaR, NDQ rhodopsin (light-driven sodium pump) from Erythrobacter sp. HL-111 (natural protein)
5: all assays above
